# According to patent publication US20250333506A1 (NEW YORK UNIVERSITY, published 2025):
# Numbering of substitutions follows the chain as printed. Like-named read-outs stand apart in the source and are kept apart here.
# T1: Cyno D2 (biotinylated (AviTag))
# T1 construct: also called cynomolgus Gamma/Delta2; Cyno D2/G
# T1 delta chain: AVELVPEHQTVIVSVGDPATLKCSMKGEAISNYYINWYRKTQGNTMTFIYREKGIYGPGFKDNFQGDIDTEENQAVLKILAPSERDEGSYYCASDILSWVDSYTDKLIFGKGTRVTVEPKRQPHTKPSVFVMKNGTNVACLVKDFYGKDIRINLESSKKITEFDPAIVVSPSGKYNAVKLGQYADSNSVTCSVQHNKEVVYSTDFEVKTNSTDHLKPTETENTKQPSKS
# T1 gamma chain: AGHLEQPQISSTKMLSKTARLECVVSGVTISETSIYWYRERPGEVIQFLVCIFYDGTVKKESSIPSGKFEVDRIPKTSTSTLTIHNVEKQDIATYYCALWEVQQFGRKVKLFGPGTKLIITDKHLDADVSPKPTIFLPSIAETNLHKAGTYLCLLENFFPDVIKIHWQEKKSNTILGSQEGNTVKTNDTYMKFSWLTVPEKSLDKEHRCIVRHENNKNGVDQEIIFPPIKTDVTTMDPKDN
# B1: Delta1-23 (antibody, V domains shown)
# VH: EVQLVESGGGLVQPGGSLRLSCAASGFTVSSSSIHWVRQAPGKGLEWVASIYSSSGYTYYADSVKGRFTISADTSKNTAYLQMNSLRAEDTAVYYCARDPGSYYWYYSGSAYEGYGLDYWGQGTLVTVSS
# VL: DIQMTQSPSSLSASVGDRVTITCRASQSVSSAVAWYQQKPGKAPKLLIYAASSLQSGVPSRFSGSRSGTDFTLTISSLQPEDFATYYCQQQSKYPFLITFGQGTKVEIKR
# notes: Tested in the human IgG format; also called anti-Delta1-23
# B2: Delta1-22 (antibody, V domains shown)
# VH: B1 VH
# VL: B1 VL with Q91R, K93R, P95Y, F96S
# notes: Tested in the human IgG format
# B3: Delta1-30 (antibody, V domains shown)
# VH: B1 VH
# VL: DIQMTQSPSSLSASVGDRVTITCRASQSVSSAVAWYQQKPGKAPKLLIYSASSLYSGVPSRFSGSRSGTDFTLTISSLQPEDFATYYCQQSGDDLITFGQGTKVEIKR
# B4: Delta1-34 (antibody, V domains shown)
# VH: B1 VH with V29F, S31G, S32T, S33D
# VL: B1 VL
# notes: also called anti-Delta1-34
# B5: Delta1-33 (antibody, V domains shown)
# VH: B1 VH with V29F
# VL: B1 VL
# notes: also called anti-Delta1-33
# B6: Delta1-27 (antibody, V domains shown)
# VH: B1 VH
# VL: B1 VL with Q91S, K93R, Y94N, P95S, F96K
# notes: as for B2
# B7: Delta1-28 (antibody, V domains shown)
# VH: B1 VH
# VL: B1 VL with Q91W, S92M, K93R, Y94S, P95S, F96S, I98F
# notes: as for B2
# B8: Delta1-18 (antibody, V domains shown)
# VH: B1 VH
# VL: B1 VL with Q91R, K93R, Y94V, P95Y, F96S, I98V
# notes: as for B2
# B9: Delta1-41 (antibody, V domains shown)
# VH: B1 VH with V29F, S31A, S32N, S33D
# VL: B1 VL
# notes: Tested in the human IgG format; also called anti-Delta1-41
# B10: Delta1-29 (antibody, V domains shown)
# VH: B1 VH
# VL: B3 VL with S50A, Y55Q
# notes: as for B2
# B11: Delta1-36 (antibody, V domains shown)
# VH: B1 VH with V29F, S32N, S33D
# VL: B1 VL
# notes: also called anti-Delta1-36
# B12: Delta1-37 (antibody, V domains shown)
# VH: B1 VH with V29F, S30T, S31G
# VL: B1 VL
# notes: also called anti-Delta1-37
# B13: Delta1-20 (antibody, V domains shown)
# VH: B1 VH
# VL: B1 VL with Q91Y, S92C, K93R, Y94K, P95S, F96S, I98F
# notes: as for B2
# B14: Delta1-38 (antibody, V domains shown)
# VH: B1 VH with V29F, S30T, S33D
# VL: B1 VL
# notes: also called anti-Delta1-38
# B15: Delta1-21 (antibody, V domains shown)
# VH: B1 VH
# VL: B1 VL with S92Q, K93R, Y94T, P95S, F96Y
# notes: as for B2
# B16: Delta1-19 (antibody, V domains shown)
# VH: B1 VH
# VL: B1 VL with Q91M, S92D, K93R, Y94F, P95Y, F96S
# notes: as for B2
# B17: Delta1-40 (antibody, V domains shown)
# VH: B1 VH with V29F, S30T
# VL: B1 VL
# notes: also called anti-Delta1-40
# B18: Delta1-17 (antibody, V domains shown)
# VH: B1 VH with S102M
# VL: B3 VL
# notes: also called anti-Delta1-17; Delta-17
# What was measured:
# Cyno D2 [1] = target: T1, Cyno D2; assay: bead binding assay: biotinylated TCR-Fc on streptavidin beads, IgG titrated, flow cytometry
# [2] = target: T2, cynomolgus Gamma/Delta1A TCR-Fc fusion protein (cynomolgus monkey, biotinylated in vitro with recombinant BirA (AviTag)); assay: bead binding assay (TCR-Fc on streptavidin beads, IgG titrated, flow cytometry); apparent KD, s.d. of triplicates
# T2 construct: First chain = delta, second = gamma; also called Cyno D1; cyno D1; not shown: Fc portion of mouse IgG, then AviTag and His6 tag at the C-terminus; Fc portion of mouse IgG
# Human D1A/G3 = target: T3, Human D1A/G3 (biotinylated (AviTag)); assay: bead binding assay: biotinylated TCR-Fc on streptavidin beads, IgG titrated, flow cytometry
# T3 construct: also called human Delta1A / Gamma3 TCR-Fc fusion protein
# Human D1A/G8 = target: T4, Human D1A/G8 (biotinylated (AviTag)); assay: as above
# T4 construct: may be the same protein as m34; also called human Delta1A / Gamma8 TCR-Fc fusion protein
# [3] = target: T2, cynomolgus Gamma/Delta1A TCR-Fc fusion …; assay: as above
# Cyno D2 [4] = target: T1, Cyno D2; assay: as above
# Cyno D2 [5] = target: T1, Cyno D2; assay: as above
# [6] = target: T2, cynomolgus Gamma/Delta1A TCR-Fc fusion …; assay: as above; remark: listed apart in the source
# [7] = target: T2, cynomolgus Gamma/Delta1A TCR-Fc fusion …; assay: as above; remark: listed apart in the source
# Cyno D2 [8] = target: T1, Cyno D2; assay: as above
# [9] = target: T2, cynomolgus Gamma/Delta1A TCR-Fc fusion …; assay: bead binding assay (TCR-Fc on streptavidin beads, IgG titrated, flow cytometry); apparent KD
# Cyno D2 [10] = target: T1, Cyno D2; assay: bead binding assay: biotinylated TCR-Fc on streptavidin beads, IgG titrated, flow cytometry
# Cyno D2 [11] = target: T1, Cyno D2; assay: as above
# [12] = target: T5, cynomolgus monkey Delta1 Fc fusion protein (Delta1 clone not stated); assay: bead binding assay: Fc fusion proteins on streptavidin-coated beads, IgG titrated, flow cytometry
# T5 construct: also called monkey (cyno) delta-1 chain; monkey Delta1 receptors
# [13] = target: T6, human Delta1 TCR (Fc fusion protein, Delta1 clone and gamma chain not stated); assay: as above
# T6 construct: also called Human Delta1 Fc fusion protein; human delta-1 chain
# [14] = target: T6, human Delta1 TCR (Fc fusion protein, …); assay: bead binding titration, flow cytometry (MFI against antibody concentration)
# Cyno D2 [15] = target: T1, Cyno D2; assay: bead binding assay: biotinylated TCR-Fc on streptavidin beads, IgG titrated, flow cytometry
# [16] = target: T2, cynomolgus Gamma/Delta1A TCR-Fc fusion …; assay: as above; remark: listed apart in the source
# [17] = target: T2, cynomolgus Gamma/Delta1A TCR-Fc fusion …; assay: as above; remark: listed apart in the source
# Cyno D2 [18] = target: T1, Cyno D2; assay: as above
# [19] = target: T2, cynomolgus Gamma/Delta1A TCR-Fc fusion …; assay: as above; remark: listed apart in the source
# Cyno D2 [20] = target: T1, Cyno D2; assay: as above
# Cyno D2 [21] = target: T1, Cyno D2; assay: as above
# [22] = target: T2, cynomolgus Gamma/Delta1A TCR-Fc fusion …; assay: as above; remark: listed apart in the source
# Cyno D2 [23] = target: T1, Cyno D2; assay: as above
# [24] = target: T6, human Delta1 TCR (Fc fusion protein, …); assay: SPR: biotinylated TCR on a neutravidin-loaded Avicap chip, IgG flowed (OneStep, Pioneer instrument)
# T3 sequence (delta chain, as listed by the source, chain 1 of 2): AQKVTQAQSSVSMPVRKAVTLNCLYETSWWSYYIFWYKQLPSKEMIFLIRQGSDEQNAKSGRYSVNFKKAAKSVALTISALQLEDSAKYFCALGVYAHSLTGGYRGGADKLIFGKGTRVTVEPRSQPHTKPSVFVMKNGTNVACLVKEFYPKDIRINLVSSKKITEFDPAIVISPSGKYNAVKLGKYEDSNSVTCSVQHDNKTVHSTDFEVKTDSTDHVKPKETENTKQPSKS
# T3 sequence (gamma chain, as listed by the source, chain 2 of 2): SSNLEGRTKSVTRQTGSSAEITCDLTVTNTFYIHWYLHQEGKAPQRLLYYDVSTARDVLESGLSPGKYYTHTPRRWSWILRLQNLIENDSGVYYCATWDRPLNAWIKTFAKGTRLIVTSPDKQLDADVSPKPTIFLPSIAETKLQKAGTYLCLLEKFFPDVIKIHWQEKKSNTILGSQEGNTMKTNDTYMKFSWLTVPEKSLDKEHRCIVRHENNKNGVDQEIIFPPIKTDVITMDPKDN
# T4 sequence (delta chain, as listed by the source, chain 1 of 2): as the sequence (delta chain, as listed by the source, chain 1 of 2) above
# T4 sequence (gamma chain, as listed by the source, chain 2 of 2): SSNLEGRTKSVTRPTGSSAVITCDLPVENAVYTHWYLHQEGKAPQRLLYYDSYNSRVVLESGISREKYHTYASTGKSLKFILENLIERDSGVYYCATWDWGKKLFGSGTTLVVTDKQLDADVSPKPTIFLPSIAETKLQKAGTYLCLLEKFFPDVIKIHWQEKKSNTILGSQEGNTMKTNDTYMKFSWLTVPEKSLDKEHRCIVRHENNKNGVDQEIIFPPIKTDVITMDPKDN
binder,measurement,setting,value
B1,binding result,Cyno D2 [1],no binding (tested: 100 nM)
same,Kd,[2],1.3 nM
same,binding result,Human D1A/G3,binds
same,binding result,Human D1A/G8,binds
same,EC50 (read off the curve),[3],~5 nM
B2,Kd,[2],0.61 nM
same,binding result,Cyno D2 [4],no binding (tested: 100 nM)
B3,binding result,Cyno D2 [5],no binding (tested: 100 nM)
B4,EC50 (read off the curve),[6],~3 nM
B5,EC50 (read off the curve),[7],~2 nM
B6,binding result,Cyno D2 [8],no binding (tested: 100 nM)
same,Kd,[9],0.78 nM
B7,Kd,[2],0.36 nM
same,binding result,Cyno D2 [10],no binding (tested: 100 nM)
B8,Kd,[9],0.15 nM
same,binding result,Cyno D2 [11],no binding (tested: 100 nM)
B9,Kd,[9],2.7 nM
same,EC50 (read off the curve),[12],~2 nM
same,EC50 (read off the curve),[13],2 to 3 nM
same,EC50 (read off the curve),[14],~1 nM
B10,Kd,[9],30.4 nM
same,binding result,Cyno D2 [15],no binding (tested: 100 nM)
B11,EC50 (read off the curve),[16],~3 nM
B12,EC50 (read off the curve),[17],~2 nM
B13,binding result,Cyno D2 [18],no binding (tested: 100 nM)
same,Kd,[9],0.34 nM
B14,EC50 (read off the curve),[19],~3 nM
B15,Kd,[2],1.74 nM
same,binding result,Cyno D2 [20],no binding (tested: 100 nM)
B16,Kd,[2],0.25 nM
same,binding result,Cyno D2 [21],binds
B17,EC50 (read off the curve),[22],~2 nM
B18,binding result,Cyno D2 [23],no binding (tested: 100 nM)
same,Kd,[9],13.7 nM
same,EC50 (read off the curve),[14],~0.5 nM
same,Kd,[24],4.6 nM
